Experimental data as given in US20260158070A1 (UNIVERSITY OF MARYLAND BALTIMORE, published 2026).

Legend:
[1] = molecular target: T1, wild-type K-Ras 4B (in RASless MEFs) (Homo sapiens (Human), UniProt P01116-2 1-185); experiment: flow cytometry, surface staining of RASless MEFs, 10 µg/ml
T1 construct: Expressed by lentiviral transduction in RASless mouse embryonic fibroblasts; stained on live cells by flow cytometry, in lysates by western blot; also called MEF-K-Ras-4B; 4B splice variant of K-Ras

[2] = molecular target: T2, wild-type K-Ras 4A (in RASless MEFs) (Homo sapiens (Human), UniProt P01116 1-186); experiment: as above
T2 construct: Expressed by lentiviral transduction in RASless mouse embryonic fibroblasts; stained on live cells by flow cytometry, in lysates by western blot; also called MEF-K-Ras-4A

binding result [1]: binds | binding result [2]: binds
B1: Human Anti-K-Ras Antibody 1 (antibody, human IgG1, lambda, N297G, V domains shown)
VH: EVQLVQSGGGVVQPGRSLRLSCAASGFTSRHPGMHWVRQAPGKGLEWVAVISHDGSKKYYADSVKGRFTISRDNSKNTLFVQLSSLRPEDTAVYYCATSLYSSMDLWGQGTTVTVSS
VL: QSVVTQPPSVSAAPGQKVTISCSGSNSNIGKNYVSWFQQVPGTAPKLLIFEDNQRPSGIPDRFSASKSGTSASLAISGLQSEDEADYYCAAWDDKFGVHWVFGGGTKLTVLG
notes: also called human K-Ras antibody 1; Human K-RAS Antibody 1
